{"source": "patent US20170058007A1", "about": "(University of California, published 2017)", "proteins": {"B1": {"name": "WT SBAFP (other)", "chain": "DGTCVNTNSQITANSQCVKSTATNCYIDNSQLVDTSICTRSQYSDANVKKSVTTDCNIDKSQVYLTTCTGSQYNGIYIRSSTTTGTSISGPGCSISTCTITRGVATPAAACKISGCSLSAM", "notes": "Gene in pET20b from the Davies lab, expressed in E. coli; also called wild type spruce budworm antifreeze protein; isozyme 501"}}, "target": "the molecule itself", "assay": "AFM imaging on mica (self-association, not fibrils)", "procedure": "Pieces of 8.0 mm×8.0 mm×0.5 mm muscovite mica were cut and mounted on standard microscope slides using composite epoxy glue (5 Minute Epoxy, ITW Performance Polymers and Fluids, FL. USA). Before protein deposition, the top layer(s) of mica was peeled mechanically to expose fresh (0001) surfaces. For SBAFP-m1 or wild type WT SBAFP, 20 μl of sample in Tris buffer (100 mM, pH8.0) were deposited on the freshly exposed mica(0001) surfaces. After 5 min incubation, the surfaces were washed three times with 200 μl Tris buffer (100 mM, pH 8.0) to remove weakly bound proteins and fibrils. The samples were immediately imaged in the Tris buffer. Sample preparation for RGAFP-m1 or WT RGAFP followed similar protocols except for the surface coating and imaging medium. The freshly cleaved mica(0001) surfaces were coated with poly-L-Lysine, by dropping 80 μl 0.1% (w/v) poly-L-Lysine (Sigma P8920, MW 150-300 kDa) onto the surface, incubating for 5 min, then washing with MilliQ water. The surfaces were dried with clean air before protein deposition. The samples were imaged under ambient conditions.\nThe formation of fibers by SBAFP-m1 was analyzed after 48 h and 3 weeks of incubation at 37° C. […] The expansion (FIG. 10A inset) allows an accurate height determination of 1.5-3 nm, but predominantly between 2.5 and 3 nm. […]"}
{"protein": "B1", "values": [{"measurement": "binding result", "result": "binds"}]}
